The text below walks through data of publication PMC4067145.

Where two headings read alike, the source gives them in different places.

Holding throughout (assay): ITC
The target in test [1] is human U2A′ protein, truncated form that included the first 180 amino acids (LRR domain) (human) (UniProt P09661).
Test [2] shares this target. This is another data set of the same source.
The target is the same in test [3]. This is another data set of the same source.

full-length human U1A protein, sequence (P09012 whole entry): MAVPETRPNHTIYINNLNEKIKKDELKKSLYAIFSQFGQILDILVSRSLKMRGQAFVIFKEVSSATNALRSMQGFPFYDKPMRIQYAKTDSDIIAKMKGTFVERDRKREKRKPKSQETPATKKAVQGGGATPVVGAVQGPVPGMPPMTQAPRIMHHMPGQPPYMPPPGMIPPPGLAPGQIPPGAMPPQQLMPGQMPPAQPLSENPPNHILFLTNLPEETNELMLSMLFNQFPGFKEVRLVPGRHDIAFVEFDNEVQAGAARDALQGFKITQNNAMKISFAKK
human U2A′ protein, truncated form that included the first 180 amino acids (LRR domain) (human), sequence (P09661 1-180): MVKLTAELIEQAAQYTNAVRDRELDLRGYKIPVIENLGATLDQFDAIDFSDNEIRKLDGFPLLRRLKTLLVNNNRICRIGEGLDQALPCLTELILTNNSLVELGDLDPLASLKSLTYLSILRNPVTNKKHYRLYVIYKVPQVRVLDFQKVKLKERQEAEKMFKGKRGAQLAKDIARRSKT

Turning to “full-length human U1A protein (from UniProt P09012 1-282) (natural protein)”, the dH in test [1] was 2 kcal/mol; in test [2], 2.9 kcal/mol; in test [3] it was 2.8 kcal/mol.
